Measured values as given in article PMC3179463.

Columns and labels:
[1] = molecular target: MALT1 tandem Ig-like domains (IgL1–IgL2) (human); assay: SEC; Superdex-200 16/60, 10 mg/mL protein, Tris buffer pH 8.0 (50 mM in the methods, 20 mM in the legend), 500 mM NaCl, 1 mM TCEP, 4°C; mass estimated from standard proteins
[2] = molecular target: MALT1 tandem Ig-like domains (IgL1–IgL2) (human); assay: AUC; sedimentation equilibrium, Beckman Optima XL-A, An-60 Ti rotor; 20 mM Tris-HCl pH 8, 200 mM NaCl, 1 mM TCEP; 12,000 and 15,000 rpm, 4°C; 0.25, 0.5 and 1.0 mg/ml; global self-association fit

stoichiometry N [1]: 4 | stoichiometry N [2]: 3.5
Substance: MALT1 tandem Ig-like domains (IgL1–IgL2) (domain or fragment)
